Measurements taken from publication PMC6458997 (Molecular Cell, 2019).
Numbering of substitutions follows the chain as printed. Names may count otherwise.

B1: SPbeta AimR (arbitrium peptide receptor / transcription factor AimR of Bacillus subtilis phage SPbeta), full length (natural protein, Bacillus subtilis SPbeta phage, UniProt O64094 1-386, looked up)
chain: MELIRIAMKKDLENDNSLMNKWATVAGLKNPNPLYDFLNHDGKTFNEFSSIVNIVKSQYPDREYELMKDYCLNLDVKTKAARSALEYADANMFFEIEDVLIDSMISCSNMKSKEYGKVYKIHRELSNSVITEFEAVKRLGKLNIKTPEMNSFSRLLLLYHYLSTGNFSPMAQLIKQIDLSEISENMYIRNTYQTRVHVLMSNIKLNENSLEECREYSKKALESTNILRFQVFSYLTIGNSLLFSNYELAQENFLKGLSISVQNENYNMIFQQALCFLNNVWRKENKWINFESDSIMDLQEQAHCFINFNENSKAKEVLDKLDLLVHNDNELAMHYYLKGRLEQNKACFYSSIEYFKKSNDKFLIRLPLLELQKMGENQKLLELLLL
notes: AimR of Bacillus subtilis phage SPbeta, amplified from genomic DNA of Bacillus subtilis strain 168; full-length AimR (residues 1-386); Cloned in pLicSGC1 with N-terminal 6xHis tag and TEV site; digested with TEV protease; A selenomethionine derivative was used to phase the AimR-AimP structure; also called WT AimR; apo AimR; source: E. coli BL21 (DE3) RIL, purified (HisTrap FF, TEV digestion, …)
B2: SPbeta AimR D360A mutant (natural protein, Bacillus subtilis SPbeta phage)
chain: B1 chain with D360A
B3: SPbeta AimR N202A mutant (natural protein, Bacillus subtilis SPbeta phage)
chain: B1 chain with N202A
B4: SPbeta AimP arbitrium peptide GMPRGA (peptide)
peptide: GMPRGA
notes: active (mature) arbitrium hexapeptide AimP of phage SPbeta, product of the yopL gene, which corresponds to phi3T aimP; also called GMPRGA peptide; SPbeta-specific arbitrium peptide; source: synthetic peptide, bought: ProteoGenix (95% purity)

Columns and labels:
[1] = molecular target: the molecule itself; assay: SEC-MALS; as the apo run, with 1 mM AimP peptide added to the injected sample and 1 μM peptide in the running buffer (25 mM Tris pH 8, 250 mM NaCl)
[2] = molecular target: the molecule itself; assay: SEC-MALS; 50 μL protein at 5 mg/mL on Superdex 200 HR 10/300 in 25 mM Tris pH 8, 250 mM NaCl; no peptide
[3] = molecular target: B1; assay: thermal shift assay (differential scanning fluorimetry); 20 μM protein, 5x Sypro Orange, 20 mM Tris pH 8, 250 mM NaCl, heated 20 to 85°C; apparent Kd from 10 peptide concentrations from 0 to 2 μM, fitted to a single binding site per monomer; conditions: both partners purified

B1
stoichiometry N [1]: 2

B2
stoichiometry N [2]: 2

B3
stoichiometry N [2]: 2

B4
Kd [3]: 53.8 nM
increment in the melting temperature (Tm) of AimR [3]: ~10 °C
